Literature values as cited in publication PMC10530560 (Cell chemical biology, 2023).

What was measured:
CXCL12 [1] = tested on: CXCL12
CCL5 [2] = tested on: CCL5
CCL5 [3] = conditions: CCL5, immobilized rPSGL-1 with SLe^x modification
CXCL12 [4] = conditions: CXCL12, chemotaxis assays using murine T-cells from WT and PSGL-1 null mice
VISTA = conditions: pH-dependent; dependent on tyrosine sulfation, not on SLe^x on Thr57

heparan sulfate binding (CXCL12 [1])	heparan sulfate binding (CCL5 [2])	heparan sulfate binding (CCL3)	heparan sulfate binding (CXCL8)	binding to PSGL-1 (CCL19)	binding to PSGL-1 (CCL21)	binding to PSGL-1 (CCL27)	binding to PSGL-1 (CCL5 [3])	binding to PSGL-1 (CXCL12 [4])	binding of VISTA (VISTA)	Molecule
found to bind	found to bind	did not bind	did not bind	–	–	–	–	–	–	heparan sulfate
–	–	–	–	reported to bind PSGL-1	reported to bind PSGL-1	reported to bind PSGL-1	did not bind	did not bind	novel pH-dependent ligand	PSGL-1: P-selectin glycoprotein ligand-1 as tested in previous literature studies (protein, UniProt Q14242 42-412, looked up) P-selectin glycoprotein …: QATEYEYLDYDFLPETEPPEMLRNSTDTTPLTGPGTPESTTVEPAARRSTGLDAGGAVTELTTELANMGNLSTDSAAMEIQTTQPAATEAQTTQPVPTEAQTTPLAATEAQTTRLTATEAQTTPLAATEAQTTPPAATEAQTTQPTGLEAQTTAPAAMEAQTTAPAAMEAQTTPPAAMEAQTTQTTAMEAQTTAPEATEAQTTQPTATEAQTTPLAAMEALSTEPSATEALSMEPTTKRGLFIPFSVSSVTHKGIPMAASNLSVNYPVGAPDHISVKQCLLAILILALVATIFFVCTVVLAVRLSRKGHMYPVRNYSPTEMVCISSLLPDGGEGPSATANGGLSKAKSPGLTPEPREDREGDDLTLHSFLP
